T1: DENV-1 strain Western Pacific-74 E protein domain III (residues 293-399) (Dengue virus 1, strain Nauru/Western …, strain)
T1 construct: Dengue virus 1 strain Western Pacific-74 (genotype 4), envelope (E) protein domain III, residues 293-399; differs from 16007 DIII at 339 (S) and 345 (V); also called West Pac-74 DIII; source: soluble, bacterially expressed
T1 chain: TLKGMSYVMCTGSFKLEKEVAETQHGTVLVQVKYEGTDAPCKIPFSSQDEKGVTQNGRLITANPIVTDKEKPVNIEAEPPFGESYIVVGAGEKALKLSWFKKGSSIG

T2: DENV-1 strain 16007 E protein domain III (residues 293-399) (Dengue virus 1, strain 16007 (genotype …, strain))
T2 construct: Dengue virus 1 strain 16007 (genotype 2), envelope (E) protein domain III, residues 293-399; untagged; also called 16007 DIII; DIII of 16007; source: BL21 bacterial cells (pET21a, autoinduction); inclusion bodies solubilized and oxidatively re-folded
T2 chain: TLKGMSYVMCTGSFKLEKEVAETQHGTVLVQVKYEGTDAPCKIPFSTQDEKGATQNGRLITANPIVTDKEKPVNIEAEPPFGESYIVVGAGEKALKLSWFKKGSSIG


Legend:
[1] = biological target: DENV-1 strain 16007 E protein domain III (residues 293-399) (Dengue virus 1 (strain 16007, genotype 2))
[2] = biological target: DENV-1 strain TVP-2130 E protein domain III (Dengue virus 1 (strain TVP-2130, genotype 1))
[3] = biological target: DENV-1 strain 16007 E protein domain III (residues 293-399) (Dengue virus 1 (strain 16007, genotype 2)); remark: listed apart in the source
[4] = biological target: DENV1-E111 monoclonal antibody; assay: SPR; Biacore T100; about 500 RU of E111 MAb or scFv amine-coupled to a Series S CM5 chip; two-fold dilution series of DIII variants injected 180 s, dissociation 1,000 s; 25°C; double referencing against WNV E16 MAb/scFv flow cell; 1:1 Langmuir fit
[5] = biological target: DENV1-E111 monoclonal antibody; assay: not stated; half-life of binding of 16007 DIII K343I with E111; unpublished results
[6] = biological target: T1, DENV-1 strain Western Pacific-74 E …; assay: SPR; Biacore T100; about 500 RU of E111 MAb or scFv amine-coupled to a Series S CM5 chip; two-fold dilution series of DIII variants injected 180 s, dissociation 1,000 s; 25°C; double referencing against WNV E16 MAb/scFv flow cell; 1:1 Langmuir fit; conditions: both partners purified
[7] = biological target: DENV-1 strain 3146 SL E protein domain III (Dengue virus 1 (strain 3146 SL, genotype 5))
[8] = biological target: DENV-1 strain TVP-5175 E protein domain III (Dengue virus 1 (strain TVP-5175, genotype 3))
[9] = biological target: T1, DENV-1 strain Western Pacific-74 E …; assay: cell-based or functional assay
[10] = biological target: DENV-1 strain 3146 SL E protein domain III (Dengue virus 1 (strain 3146 SL, genotype 5)); remark: listed apart in the source
[11] = biological target: DENV-1 West Pac-74 DIII V345A (Dengue virus 1 (strain Western Pacific-74, genotype 4))
[12] = biological target: T1, DENV-1 strain Western Pacific-74 E …; assay: SPR; Biacore T100; about 500 RU of E111 MAb or scFv amine-coupled to a Series S CM5 chip; two-fold dilution series of DIII variants injected 180 s, dissociation 1,000 s; 25°C; double referencing against WNV E16 MAb/scFv flow cell; 1:1 Langmuir fit; conditions: both partners purified
[13] = biological target: E111 single-chain variable fragment (VL at the N-terminus); assay: SEC; E111 scFv after nickel affinity; two species resolved
[14] = biological target: T2, DENV-1 strain 16007 E protein domain …; assay: SPR; Biacore T100; about 500 RU of E111 MAb or scFv amine-coupled to a Series S CM5 chip; two-fold dilution series of DIII variants injected 180 s, dissociation 1,000 s; 25°C; double referencing against WNV E16 MAb/scFv flow cell; 1:1 Langmuir fit; conditions: both partners purified

Molecule | Kd [4] [nM] | koff [4] [s⁻¹] | kon [4] [M⁻¹ s⁻¹] | t1/2 [4] [min] | further results
DENV1-E111 monoclonal antibody |  |  |  |  | EC50 of neutralisation of 16007 RVP after incubation with E111 at 37°C (1 to 22 h) or 40°C (to 4.5 h); fold increase in potency at 40°C for 4.5 h [1]: 3.5 fold; PRNT50, plaque reduction neutralisation of DENV-1 TVP-2130 (genotype 1) on Vero cells [2]: > 25000 ng/mL; PRNT50, plaque reduction neutralisation of DENV-1 16007 (genotype 2) on Vero cells [3]: 3.8 ng/mL
DENV-1 16007 DIII A345V (domain or fragment) | 1140 | 0.131 | 114000 | 0.0883 | 
DENV-1 16007 DIII A369T (domain or fragment) | 25.3 | 0.00383 | 151000 | 3.04 | 
DENV-1 16007 DIII D341N (domain or fragment) | 18.9 | 0.00402 | 213000 | 2.88 | 
DENV-1 16007 DIII K310E/T329E/K361T (domain or fragment) | 39.8 | 0.00457 | 121000 | 2.58 | 
DENV-1 16007 DIII K343I (domain or fragment) |  |  |  |  | t1/2 [5]: 45 min
DENV-1 16007 DIII L351V (domain or fragment) | 107 | 0.0237 | 211000 | 0.548 | 
DENV-1 16007 DIII T339S (domain or fragment) | 16.6 | 0.00313 | 191000 | 3.71 | 
DENV-1 16007 DIII V380I (domain or fragment) | 19 | 0.00236 | 124000 | 4.94 | 
DENV-1 strain 3146 SL E protein domain III (domain or fragment) | 523 | 0.142 | 267000 | 0.0917 | 
DENV-1 strain 16007 E protein domain III (residues 293-399) (domain or fragment) | 18 | 0.00356 | 198000 | 3.23 | 
DENV-1 strain TVP-5175 E protein domain III (domain or fragment) | 1980 | 0.312 | 162000 | 0.0367 | 
DENV1-E111 monoclonal antibody (antibody, V domains shown, also called E111 MAb; E111 IgG; source: E111 hybridoma) VH: QVQLLQPGAELVKPGASMKLSCKASGYTFTNWWMHWVRLRPGRGLEWIGRIDPNSDVNKYNEKFENRASLTVDKHSSTAYMQLSSLTSEDSAIYYCARWFFPWYFDVWGTGTTVTVSS VL: NIVLTQSPASLAVSLGQRATISCRASESVDHYGNSFIYWYQQKPGQPPKLLIYLASNLESGVPARFSGSGSETDFTLTIDSVETDDAATYYCQQNNEDPYTFGGGTKLEIK |  |  |  |  | Kd [6]: 415 ± 24 nM; PRNT50, plaque reduction neutralisation of DENV-1 3146 SL (genotype 5) on Vero cells [7]: 21 ng/mL; PRNT50, plaque reduction neutralisation of DENV-1 TVP-5175 (genotype 3) on Vero cells [8]: > 25000 ng/mL; EC50 of neutralisation of West Pac-74 RVP after incubation with E111 at 37°C (1 to 22 h) or 40°C (to 4.5 h); fold reduction at 40°C for 4.5 h [9]: 20 fold; EC50, plaque reduction neutralisation of DENV-1 3146 SL (genotype 5) [10]: 0.022 µg/mL; neutralisation of V345A West Pac-74 RVP against wild-type West Pac-74 RVP, Raji-DC-SIGNR cells, fold enhancement [11]: 3.6 fold; Kd [12]: 416 nM; koff [12]: 0.106 s⁻¹; kon [12]: 256000 M⁻¹ s⁻¹; t1/2 [12]: 0.108 min
E111 single-chain variable fragment (VL at the N-terminus) (scFv, V domains shown, E111 VL; as the VL of the light chain of m1; (GGGGS)3 linker; E111 VH; as the VH of the heavy chain of m1; The monomeric species was used for the structure; a second construct with VH first was also made but not used; also called E111 scFv) VH: QVQLLQPGAELVKPGASMKLSCKASGYTFTNWWMHWVRLRPGRGLEWIGRIDPNSDVNKYNEKFENRASLTVDKHSSTAYMQLSSLTSEDSAIYYCARWFFPWYFDVWGTGTTVTVSS VL: NIVLTQSPASLAVSLGQRATISCRASESVDHYGNSFIYWYQQKPGQPPKLLIYLASNLESGVPARFSGSGSETDFTLTIDSVETDDAATYYCQQNNEDPYTFGGGTKLEIK |  |  |  |  | stoichiometry N [13]: 2; Kd [14]: 24.6 nM; koff [14]: 0.00695 s⁻¹; kon [14]: 288000 M⁻¹ s⁻¹; t1/2 [14]: 1.68 min; Kd [12]: 1830 nM; koff [12]: 0.275 s⁻¹; kon [12]: 151000 M⁻¹ s⁻¹; t1/2 [12]: 0.0422 min

Reference: PMC3464233, “Structural Basis of Differential Neutralization of DENV-1 Genotypes by an Antibody that Recognizes a Cryptic Epitope” (PLoS Pathogens, 2012)
